Experimental data reported in US6809076B2, “Use of anticoagulant agents in the extracorporeal treatment of blood” (Abbott GmbH & Co. KG, priority 2000, dated 2004).
Marks after values point to notes of the source that are not given here. PEG = not defined here

How the values were obtained:
thrombin [1] = settings: human, in vivo, iv, 0.08 mg/kg
Method: (§1) 20 male and female patients between 18 and 75 years who must regularly undergo hemodialysis were selected. After an initial treatment with heparin (UFH), each patient was given an intravenous injection, immediately before the first dialysis during PEG-hirudin treatment, of a dose of 0.08 mg/kg of PEG-hirudin with a specific antithrombin activity of 13,354 ATU/mg of protein per kg of body weight. This was followed by hemodialysis with an average duration of 4 hours, 3×a week using a Hemophan low flux membrane in a GFS plus 16 dialyzer. When the dialysis was complete and before the subsequent dialysis sessions, firstly the PEG-hirudin concentrations in the patient's blood were determined. The measured values served as the basis for the amount of the PEG-hirudin doses to be administered immediately before each hemodialysis.
Determination of the anti-IIa activity is based on measurement of the activity remaining after addition of excess thrombin to the sample. Heparin and other non-thrombin serine proteases are neutralized before the assay by adding prothamine [sic] chloride and aprotinin to the sample. […]
The measurement is carried out in an ACL 3000 (incubation time: 120 s; inter-ramp interval: 3 s; delay time: 3 s; aquisition time: 120 s; speed: 600 rpm). The extinction is measured using a 405 nm filter at a constant rotor speed. […]

meizothrombin = molecular target: T1, meizothrombin (Homo sapiens, UniProt P00734); test: ECT (ecarin clotting time) determination in dialysis patients; type: in vivo
T1 construct: produces meizothrombin by cleavage of the prothromin in the plasma; from tissue; host or cells: citrated venous blood/plasma of human dialysis patients
Method: Determination of the ECT (ecarin clotting time) is based on the inhibition of the coagulation activity of meizothrombin. Ecarin, a purified fraction of Echis carinatus venom, produces meizothrombin by cleavage of the prothromin in the plasma. The time until fibrinogen coagulates induced by ecarin is measured.
The sample volume is about 100 μl.
Standard E: [c]=2500 ng/ml (1:20 dilution of standard C with normal human citrated plasma)
The measured results can also be stated as ratio and describe the ratio of the current value to the individual baseline value for a patient before the dialysis with PEG-hirudin.
The accuracy of measurement is +30% to −10%.

thrombin [2] = molecular target: thrombin (Homo sapiens, UniProt P00734); test: Specific antithrombin activity (ATU, WHO I thrombin standard); type: biochemical
Excerpt: The blood levels described above can usually be obtained with bolus doses in the range from about […] to about 1400 ATU/kg, preferably from about 400 ATU/kg to about 1200 ATU/kg and, in particular, from about 600 ATU/kg to about 1000 ATU/kg, of body weight. After adaptation it is possible to treat individuals with chronic renal insufficiency, with an average of three exracorporeal circulations a week, with a dosage of about 200 to about 1000 ATU/kg, preferably of about 200 ATU/kg to about 800 ATU/kg and, in particular, from about 400 ATU/kg to about 600 ATU/kg, of body weight. The abbreviation ATU stands for antithrombin units bas ed on the WHO I thrombin standard.

vascular complications = test: Prophylaxis of vascular complications between hemodialysis sessions; type: in vivo, human; settings: residual concentration in blood between the hemodialysis sessions, 20 patients
Method: as §1

plasma fibrin formation = test: APTT determination in dialysis patients; type: in vivo, human
Method: The determination of the activated partial thromboplastin time (APTT) is based on plasma fibrin formation induced by addition of a partial thromboplastin (Actin FS) and calicum [sic] ions to the plasma. Ellagic acid is used as activator.
The sample volume is at least 450 μl.
The controls used are control plasma in the normal range, control plasma in the therapeutic range, control plasma in the low therapeutic range and a quality control in the normal range, for example the controls commercially available from Dade citrol 1, Citrol 2, Citrol 3 and Coag Trol N.
The measurement is carried out in an ACL 3000.
The ACL 3000 is a completely automatic, microcomputer-controlled centrifugal analysis system. After the start of the analysis cycle, sample and Actin are pipetted separately into the half-cuvettes of a reaction rotor made of acrylic glass with 20 cuvettes, and are mixed and then incubate d. After the incubation, calcium chloride is pipetted into the cuvettes, mixed and measured. Measurements are carried out while the rotor is rotating. The light source for the nephelometric measurement is a light-emitting diode (LED) whose light beam is directed via a light guide system (γ=660 nm) onto the measuring cuvettes. The scattered light distribution is measured at an angle of 90° to the light source with the aid of a semiconductor sensor located underneath the rotor carrier. The measured results can also be stated as ratio and describe the ratio of the current value to the individual baseline value for a patient before the dialysis with PEG-hirudin.
The accuracy of measurement is +10% to −10%.

[3] = dialysis 04, first with PEG-hirudin (0.08 mg/kg i.v.)
[4] = dialysis 08, PEG-hirudin i.v. before each dialysis
[5] = dialysis 13, PEG-hirudin i.v. before each dialysis
[6] = dialysis 05, PEG-hirudin i.v. before each dialysis
[7] = dialysis 06, PEG-hirudin i.v. before each dialysis
[8] = dialysis 07, PEG-hirudin i.v. before each dialysis
[9] = dialysis 09, PEG-hirudin i.v. before each dialysis
[10] = dialysis 10, PEG-hirudin i.v. before each dialysis
[11] = dialysis 11, PEG-hirudin i.v. before each dialysis
[12] = dialysis 12, PEG-hirudin i.v. before each dialysis

- ECT Bolus 5' after admin. (meizothrombin; [3]): 3.0 [s] [ratio]
- ECT Bolus 5' after admin. (meizothrombin; [4]): 3.1 [s] [ratio]
- ECT Bolus 5' after admin. (meizothrombin; [5]): 3.1 [s] [ratio]
B1: PEG-hirudin: polyethylene glycol conjugates of hirudin; preferably SEQ ID NO:1 polypeptide with PEG residues on lysine 27 and lysine 33 (conjugate)
chain: VVYTDCTESGQNLCLCEGSNVCGQGNK(PEG)CILGSK(PEG)GERNQCVTGEGTPRPQSHNDGDFEEIPEEYLQ
modifications: ends and bridges not checked
- Anti-IIa After dialysis (thrombin [1]): 818 ng/mL
- Anti-IIa Bolus 5' after admin. (thrombin [1]; 5 min): 1298 ng/mL
- specific antithrombin activity (thrombin [2]; PEG-hirudin given to the patients): 13,354 ATU/mg of protein
- specific activity (thrombin [2]; Standard A, 26.6 mg/ml): 11,696 ATU/mg of protein
- prophylactic protection against vascular complications (vascular complications): ensured prophylactic protection against vascular complications
- APTT After dialysis (plasma fibrin formation; [3]): 2.2 ratio
- APTT Bolus 5' after admin. (plasma fibrin formation; [3]): 2.5 ratio
- APTT Before dialysis (plasma fibrin formation; dialysis 04, first with PEG-hirudin (0.08 mg/kg i.v.), before dose): 1.0 ratio
- APTT After dialysis (plasma fibrin formation; [6]): 2.3 ratio
- APTT Before dialysis (plasma fibrin formation; [6]): 1.7 ratio
- APTT After dialysis (plasma fibrin formation; [7]): 2.3 ratio
- APTT Before dialysis (plasma fibrin formation; [7]): 1.9 ratio
- APTT After dialysis (plasma fibrin formation; [8]): 2.2 ratio
- APTT Before dialysis (plasma fibrin formation; [8]): 1.9 ratio
- APTT After dialysis (plasma fibrin formation; [4]): 2.5 ratio
- APTT Before dialysis (plasma fibrin formation; [4]): 2.0 ratio
- APTT Bolus 5' after admin. (plasma fibrin formation; [4]): 2.6 ratio
- APTT After dialysis (plasma fibrin formation; [9]): 2.4 ratio
- APTT Before dialysis (plasma fibrin formation; [9]): 2.0 ratio
- APTT After dialysis (plasma fibrin formation; [10]): 2.3 ratio
- APTT Before dialysis (plasma fibrin formation; [10]): 2.0 ratio
- APTT After dialysis (plasma fibrin formation; [11]): 2.3 ratio
- APTT Before dialysis (plasma fibrin formation; [11]): 2.0 ratio
- APTT After dialysis (plasma fibrin formation; [12]): 2.3 ratio
- APTT Before dialysis (plasma fibrin formation; [12]): 2.0 ratio
- APTT After dialysis (plasma fibrin formation; [5]): 2.2 ratio
- APTT Before dialysis (plasma fibrin formation; [5]): 1.9 ratio
- APTT Bolus 5' after admin. (plasma fibrin formation; [5]): 2.5 ratio
